Laboratory results as given in the DeepSol protein solubility set.

Assay: soluble on expression in E. coli; label from the status in PepcDB or PDB records

Row | Sequence | soluble on expression in E. coli
1 | RGSHMEVRNMVDYELLKKVVEAPGVSGYEFLGIRDVVIEEIKDYVDEVKVDKLGNVIAHKKGEGPKVMIAAHMDQIGLMVTHIEKNGFLRVAPIGGVDPKTLIAQRFKVWIDKGKFIYGVGASVPPHIQKPEDRKKAPDWDQIFIDIGAESKEEAEDMGVKIGTVITWDGRLERLGKHRFVSIAFDDRIAVYTILEVAKQLKDAKADVYFVATVQEEVGLRGARTSAFGIEPDYGFAIDVTIAADIPGTPEHKQVTHLGKGTAIKIMDRSVICHPTIVRWLEELAKKHEIPYQLEILLGGGTDAGAIHLTKAGVPTGALSVPARYIHSNTEVVDERDVDATVELMTKALENIHELKI | soluble
2 | RHQNYGVPWTPGETRQVWDVEARIEFNANGNEVKASLAAPHTQSGYTLIGESASSSGYGVSYINSDSGRRAEWSIRQAKGPQTIYYKAQFLVDPQAKVEPLPPAGDITPPTLSAPQQAAASALIDQAMSRSADNVTFARELIKTLNDPDSQNSALLLNDFDRTDALHKILLSAGVQSKIVGVIELEDGRRRQTIQPMVQVWSGKDWVLFSPNSEQKAVKPNLLVWDESNVSLLDLVGGKNSQVHFSMIKQEVTPQQATNNKVEADGLLNLSIHSLPLEEQAMFK | soluble
3 | RIGVIGTGAIGGFYGLMLAHAGHDVHFLLRSEFEAVNRAGLSLNSAVHGFRRLAPVQAYHSAQDMPPCDWLLVGAKTTGNDELAPLIRAAAAPGAKVLLLQNGLGVEERLRPLLPESLHLLGGLCFICVHRGEPGVIEHQAYGGVNLGYHSGPADERRRREIVEEGAALFRESGLESTAMPDLEQARWQKLVWNIPYNGLSVLLKSSTAPLMANADSRSLIEAIMEEVIGAAGACGFILPEGYADQLLAATERMPDYRPSMYHDFAHGRPLELAAIYAAPLARAAA | not soluble
4 | RLNLKAIAERSESLEDFFTRTLPHYCQQQIAIIDARCEFLYQQSHFFENSFLVKEGLINPERFVPMFGMYGLAEAVNLLCEKEGIAARYGKEAAANEVGYRISAQLAEFVANTPVKYGWQKRAMLHAQSGISSDIGTTPGARLPYGDEPDPITHLQTVAPHHAYYYSGISDILTLDETIKRNPQALVQLCLGAFKAGMREFTANVSGNDLVRVTGYMVRLSDLEKYRAEGSRTNTTWL | not soluble
5 | RLPKKHYTDSLDYALFKELIRVSVASNNKQILDYYEHHCHKKNPATACQYGYVLALLNNNNFQKAAEKLNPLLLQDNSNLNFQIAMAQAELGLSQYQSALSRLAELQNNFPDNYAALMAYAQGLLTANQPQKATAVLLKGSRQYKEDLPLCRELARAQA | not soluble
6 | RLSLRAKAKEINLENLEEFVSEVKARNLKAYLAVNSTVNEDRLEEAGNVINAAAKAGVDAVIAWDPAVILKARKSGLRIHISTQANTTNHETAEFYRALGAERIVLSRELSLEEIREIRQRSEVEVETFVHGAMCMAVSGRCHLSAYVLGKSGNCGECTQPCRWEWELHGENNLVMESRGKYLLSAKDLCMIEHIPALLGARIDSFKVEGRLRDPGYLEVVSRCYREAIDACKEGTYTREKVDSWLSKLSSVYNRGFSTGFYFGIPGLEGFSPEKSMNASEKKRRAAGIVENYYPRQHAAAIKLLEEGLEIGNEILIEGSTTYLKQRVTSLIKNGMSLQKAEKGDEVGLAVDGTVRRNDRIFI | not soluble
7 | RMPGLPDIAFTGDGQMTKHEIRALTLCALAPAAGELLWDVGGGSGTVAIEWMRTHPLCRAVTFERSAARVDQIESNAAALGVPSLAVFGDAPAAFEDVPPELSTPDAIFVGGGVTQDGLLDECWSRLRVGGRMVVNAVTAESEALLLQWFSNCGGQLRKFQVYRGEPLGGFTAWRPQLPVAQWSVTKQSKGDAA | not soluble
8 | RNVSFRMQPIRIPMGMIGGFIGGQIDEMISTSKDRRIDWSEVYSKDTLYGRGNSG | soluble
9 | RPAIRKRLLKPKVLDSSPRALVGHRAEVLEDVGATSGQVRLDGSIWSARSMDPTHTFAEGEIVSVIDIQGTTAIVWKEA | soluble
10 | RPFMQKRAQKALPHVSTGADALVGRKVLVTETIDPTTDKGRVAVDGDVWTARSLTGEVIEKGMRVEIVSYESIVLNVVVLGNDKQ | not soluble
11 | RPVGTIFVIGDTKEVMKHSHQLVPNPFKGHKINIMNPKVKPIIKEFSFLDGAFIISSTGRVVAAGRYLDVDPKKLEIDIPQGLGSRHLASAAITKVTKAIAITLSESGVIRVFKDGK | soluble
12 | RPVWYGEPVDIQPEHRDMMLVVDLSGSMAEEDMKTSNGDFVDRLTAVKQVVSDFIDQRKGDRLGLVLFGDHAYLQTPLTFDRNTVREQLDRTVLNLVGQRTAIGEGLGLATKTFIESNAPQRTIILLSDGANTAGVLEPLEAAQLAKDNHAKIYTVGIGAGEMQVRGFFGKQTVNTARDLDEDTLTKIATMTGGQYFRARNADELAEIYQTIDALEP | soluble
13 | RRKPGKCPVTYGQCLMLNPPNFCEMDGQCKRDLKCCMGMCGKSCVSPVKA | soluble
14 | RVAVLVATHGNNTASSMVSVAKKLLGEGLVEGIDMPLDQSPKIVLDKLTERAKEMDMGRGLLLLVDMGSLTSFAPVISERTGIPVRSIDMVSTATVIEAVRKSNILDMELDSIYDSLKDFRGYGGYNSDDDTLDS | not soluble
15 | RYRGSKWAGKKSIPAFIDNDYNEADQVIENLQRNELTPREIADFIGRELAKGKKKGDIAKEIGKSPAFITQHVTLLDLPEKIADAFNTGRVRDVTVVNELVTAFKKRPEEVEAWLDDDTQEITRGTVKLLREFLDEKGRDPNTVDAFNGQTDAERDAEAGDGQDGEDGDQDGKDAKEK | soluble
16 | SAALTAEHFVALQSLLKASSKDVVRQLCQESFSSSCLDSESLLDKTCSSLSVPQGEAAQLLQALHHFTRLVAFRDLSSAEAILALFPENFHQNLKNLLTKIIVEHISTWRAEAQANQISLPRLVDLDWRVDIKTSSDNISRMAVPTCLLQMKIQEDPSLCGEKPSISAVTMELSKETLDTMLDGLGRIRDQLSAVANK | soluble
17 | SAFSGTWQVYAQENYEEFLRAISLPEEVIKLAKDVKPVTEIQQNGSDFTITSKTPGKTVTNSFTIGKEAEITTMDGKKLKCIVKLDGGKLVTRTDRFSHIQEIKAGEMVETLTVGGTTMIRKSKKILVP | soluble
18 | SANPKLLGLELSEAEAIGADSARFEELLLQASKELQQAQTTRPESTQIQPQPGFCIKTNSSEGKVFINICHSPSIPPPADVTEEELLQMLEEDQAGFRIPMSLGEPHAELDAKGQGCTAYDVAVNSDFYRRMQNSDFLRELVITIAREGLEDKYNLQLNPEWRMMKNRPFMGSISQQNIRSEQRPRIQELGDLYTPAPGRAESGPEKPHLNLWLEAPDLLLAEIDLPKLDGALGLSLEIGENRLVMGGPQQLYHLDAYIPLQINSHESKAAFHRKRKQLMVAMPLLLVPS | soluble
19 | SAPGVPDARAIAAICEQLRQHVADLGVLYIKLHNYHWHIYGIEFKQVHELLEEYYVSVTEAFDTIAERLLQLGAQAPASMAEYLALSGIAEETEKEITIVSALARVKRDFEYLSTRFSQTQVLAAESGDAVTDGIITDILRTLGKAIWMLGATLKA | soluble
20 | SARLADYFIVVGYDHEKPGSGEGLGKIIQRFPQKDWDDTPFPQGIELFCQPGGWQLSRERKQPTFFVVVLTDIDSDRHYCSCLTFYEAEINLQGTKKEEIEGEAKVSGLIQPAEVFAPKSLVLVSRLYYPEIFRACLGLIYTVYVDSLNVSLESLIANLCACLVPAAGGSQKLFSLGAGDRQLIQTPLHDSLPITGTSVALLFQQLGTVAHACNLSTLGGRGGQLTRSGDRDHPG | soluble
21 | SASHIVGYPRMGPKRELKFALESFWDGKSSAEDLEKVATDLRASIWKQMADAGIKYIPSNTFSYYDQVLDTTAMLGAVPGRYSWTGGEIGFSTYFSMARGNATVPAMEMTKWFDTNYHFIVPELGPNTKFSYSSHKAVNEYKEAKALGVDTVPVLVGPVSYLLLSKPAKGVEKSFALLSLLSSILPVYKEVIAELKAAGATWIQFDEPTLVLDLDSHQLAAFSAAYTELESALSGLNVLIETYFADIPAESYKTLTSLNSVTAYGFDLIRGSKTLDLVKSAGFPSGKYLFAGVVDGRNIWADDLAASLTTLESLEAIVGKDKLVVSTSCSLMHTAVDLVNETKLDSEIKSWLAFAAQKVVEVNALAKALAGQKDEAYFAANTAAQASRRSSPRVTNEEVQKAAAALRGSDHRRATNVSARLDAQQKKLNLPVLPTTTIGSFPQTVELRRVRREYKAKKISEDEYVSAIKEEISKVVKIQEELDIDVLVHGEPERNDMVEYFGEQLSGFAFTANGWVQSYGSRCVKPPIIYGDVSRPNAMTVFWSKMAQSMTSRPMKGMLTGPVTILNWSFVRNDQPRFETCYQIALAIKKEVEDLEAGGIQVIQIDEAALREGLPLRKAEHAFYLDWAVHSFRITNCGVQDTTQIHTHMCYSNFNDIIHSIINMDADVITIENSRSDEKLLSVFREGVKYGAGIGPGVYDIHSPRIPSTEEIADRINKMLAVLDTNILWVNPDCGLKTRKYTEVKPALTNMVLAAKLIRTQLASAK | soluble
22 | SASHQEQSYKAGETRGKAQEKTGEAMGTMGDKTQAAKDKTQETAQSAQQKAHETAQSAKDKTSQAAQTTQERAQESKDKTGSYMSETGEAIKNKAHDAAEYTKETAEAGKEKTSGILGQTGEQVKQMAMGATDAVKHTLGLRTDEGNKEHVSSAPSTTTTTTTRETQRK | soluble
23 | SASLDRVKVLVLGDSGVGKSSLVHLLCQNQVLGNPSWTVGCSVDVRVHDYKEGTPEEKTCYIELWDVGGSVGSASSVKSTRAVFYNSVNGIIFVHDLTNKKSSQNLRRWSLEALNRDLVPTGVLVTNGDYDQEQFADNQIPLLVIGTKLDQIHETKRHEVLTTTAFLAEDFNPEEINLDCTNPRYLAAGSSNAVKLSRFFDKVIEKRYFLREGNQIPGFPDRKRFGAGTLKSLHYD | soluble
24 | SAVKAQVLYDFTAEPGNNELTVHEGETLTITNQNVGGGWVEAQNSRGNVGLVPVDYVEVNSASAQAPATQYIDARNQGNNNSTANTQGVNGNEAWTATTWSNSYPADNWNYTEQEPAGNNGSVYSFDEEWDDDSDDGKSTGGYGGSQAEDGGTMQRSGAHSTMKLSLNKFPGFSKTPNPEVYLLTKHITKGNDRLSVYPGEVGPVWLYPQTQLDCVVADPKKGSKMYGLKSYIEYQITPNTTNRPVNHRYKHFDWLYERLVEKFACALPVPGLPDKQVTGRFEEEFIKMRMERLQGWMSRMCRHPVISNSEVFQLFLNYRDEKEWKLGKRKAEKDETVGVKIFSTIDPELPELDPAQVEQKYEVYNQFTRSMDNSVKELLAVGNLHWKRCTGPLQKEYRQIGKAFQNMSSVFNTSGYPRESTLTEALTATGKTYEEIAEVIAAQPRKDLHFLLETNNEYKGLLGCFPDTIGVHKAAIDKVKEADHLVMTNKISQQDKHTMEKNLSTMSYALQAEMNHFHSNRIYDYNRLMQFYLEEQVKFYETIAEKLKKALGQYTTI | soluble
25 | SDFVNNLDTDTSLSILSCLDDPSDIVRASAVSRSWRQFVVKYSLSKNLCLKLFHQLSNVDHIIETSNDRNGESSEAGSSSLMDTRLLEKEHRAFALLARGCMSSPIESCIADAIRASSTDNYPVESILNTLEKRDRIGRTPSYWSSTGQHKTTVPESLLYKLIGDLCLITEVSIHPFQAYFQRGHPIYSSHYVRFRLGHEKDNSPHYNNSQDKKGEPGKSSIESNYVWTYTSQEFSMAQENRLQSFQLPEPVLCIGGYLLVEFLGRVQTQEMDGQYYICVSHVKVEGRSLAKSFRVENVDDNGKFGLKVLSYNDPKKMEEMDAEAGQDMDAEAGQSQLRNLEQLLNLLHRHPLDVVDYVWPDESDDEYAESEDEAEP | soluble
26 | SDIAIHHPWIRRPFFPFHSPSRLFDQFFGEHLLESDLFPTSTSLSPFYLRPPSFLRAPSWFDTGLSEMRLEKDRFSVNLDVKHFSPEELKVKVLGDVIEVHGKHEERQDEHGFISREFHRKYRIPADVDPLTITSSLSSDGVLTVNGPRKQVSGPERTIPITREEKPAVTAAPKK | soluble
